B1: WIND1_m probe (dsDNA)
DNA 1: AATCCCTCCCTAAACCTCTATGGGACCTTATTAATTTTTG
DNA 2: CAAAAATTAATAAGGTCCCATAGAGGTTTAGGGAGGGATT
B2: WIND1 promoter probe (dsDNA)
DNA 1: AATCCCTCCCTAAACCTCTAGAGAGTTCTATTAATTTTTG
DNA 2: CAAAAATTAATAGAACTCTCTAGAGGTTTAGGGAGGGATT
B3: WIND1 unlabelled competitor (dsDNA)
DNA 1: B2 DNA 1
DNA 2: B2 DNA 2
B4: ZAT6 promoter probe (dsDNA)
DNA 1: AATTCTTATCACTTAAGAATATTCTAGAGAGCTCTCACTT
DNA 2: AAGTGAGAGCTCTCTAGAATATTCTTAAGTGATAAGAATT

What was measured:
[1] = target: T1, MBP-HSFA1d (Arabidopsis thaliana, UniProt Q9LQM7 1-485); experiment: EMSA
T1 sequence (Q9LQM7 whole entry): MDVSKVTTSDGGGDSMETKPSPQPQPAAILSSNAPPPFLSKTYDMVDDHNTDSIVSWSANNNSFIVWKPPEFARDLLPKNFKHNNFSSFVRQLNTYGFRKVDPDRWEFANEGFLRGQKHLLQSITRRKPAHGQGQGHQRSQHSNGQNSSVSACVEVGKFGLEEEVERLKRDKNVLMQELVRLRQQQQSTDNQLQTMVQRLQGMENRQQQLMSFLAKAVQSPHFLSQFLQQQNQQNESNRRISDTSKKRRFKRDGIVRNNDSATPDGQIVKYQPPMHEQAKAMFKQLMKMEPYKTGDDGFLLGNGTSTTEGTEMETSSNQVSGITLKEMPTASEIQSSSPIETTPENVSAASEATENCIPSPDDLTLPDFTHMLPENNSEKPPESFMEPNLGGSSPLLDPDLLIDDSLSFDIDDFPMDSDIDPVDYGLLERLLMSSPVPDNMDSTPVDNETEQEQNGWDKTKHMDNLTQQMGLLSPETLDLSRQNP

[2] = target: T1, MBP-HSFA1d; experiment: competition

Binder | binding result [1] | binding result [2]
B1 | no binding | 
B2 | binds | 
B3 |  | binds
B4 | binds | 
